Publication PMC6962038 (Science Advances, 2020)

Tests used:
[1] = molecular target: wild-type human APJ (membrane preparation) (human, UniProt P35414); experiment: cell-based or functional assay
[2] = molecular target: APJ463 chimeric receptor reconstituted in nanodiscs (human, UniProt P35414, C325L | C326M); experiment: SPR

IC50 of antagonism of the action of Apelin 13 on human APJ, cAMP assay [1]: 5.9 nM
Kd [2]: 0.083 nM
B1: single-domain antibody (sdAb) antagonist JN241 (VHH)
VHH: QVQLVESGGGSVQSGGSLTLSCAASGSTYSSHCMGWFRQAPGKEREGVALMTRSRGTSYADSVKGRFTISQDNTKNILYLQMNSLKPEDTAMYYCAAVPRAGIESGAYCKWNMKDSGSWGQGTLVTVSS
